These results are taken from patent publication US8536117B2, “Oxidant resistant apolipoprotein A-1 and mimetic peptides” (The Cleveland Clinic Foundation, priority 2007, dated 2013).

The subject of data set [1] is RAW 264.7 murine macrophage cells. In words: ABCA1-dependent cholesterol efflux assay. The format is cell-based. To be noted: unoxidised protein/peptide, 4 hr incubation with [3H]cholesterol labeled RAW264.7 cells pretreated with 0.3 mM 8Br-cAMP. On the procedure:
ApoA1 (filled circles, solid line) and reductively methylated ApoA1 (open circles, dashed line) were subjected to modification by MPO at varying H2O2:ApoA1 mole ratios. These proteins were then assayed for ABCA1 dependent cellular cholesterol acceptor activity during a 4 hr incubation at 5 μg/ml with cholesterol labeled RAW264.7 cells, which had been treated with 0.3 mM 8Br-cAMP to induce ABCA1. Data are means±S.D. of triplicate determinations, when no bars appear, the S.D. is within the symbol.
(§1) RAW 264.7 murine macrophage cells were labeled with [3H] cholesterol and treated with 0.3 mmol/L 8Br-cAMP to induce ABCA1 activity, as previously described. The cells were washed and chased for 4 hours in serum-free medium in the presence of 0.3 mmol/L 8Br-cAMP and the presence or absence of various ApoA1 preparations. The radioactivity in the chase media was determined after brief centrifugation to pellet debris. Radioactivity in the cells was determined by extraction in hexane:isopropanol (3:2) with the solvent evaporated in a scintillation vial prior to counting. The percent cholesterol efflux was calculated as 100×(medium dpm)/(medium dpm+cell dpm).

For data set [2] the test system is unchanged. In words: MPO/H2O2/Cl- modification of ApoA1, then ABCA1-dependent cholesterol efflux assay. It is filed as cell-based. The following applies: for MPO mediated loss of cholesterol acceptor activity, high dose: H2O2:apoAI = 15:1, 3MV with or without the N-terminal methionine; for loss of cholesterol acceptor activity: MPO modification at H2O2:ApoA1 ratio of 1.4; for ABCA1-dependent cholesterol acceptor activity after MPO modification: MPO/H2O2/Cl- system at varying (increasing) H2O2:ApoA1 mole ratios. As for the experimental part:
(§2) MPO at a final concentration of 57 nmol/L, prepared as previously described, was added to ApoA1 at 100 μg/mL (3.5 μmol/L) that had been extensively dialyzed against MPO reaction buffer. The reaction was initiated by adding hydrogen peroxide at varying mole ratios to ApoA1 in 4 aliquots at 15-minute intervals at 37° C., and continuing the incubation for 90 minutes, at which time 2 mmol/L L-methionine was added to quench the reaction. For chemical modification of ApoA1, sodium hypochlorite (NaOCI) was added to 100 μg/mL ApoA1 in MPO buffer at varying concentrations in 4 aliquots at 15 minutes intervals at 37° C. After a total incubation time of 60 minutes, 2 mmol/L L-metbionine was added to quench the reaction.
as §1

For data set [3] the test system is unchanged. In words: HOCl (sodium hypochlorite) modification of ApoA1, then ABCA1-dependent cholesterol efflux assay. The format is cell-based. To be noted: increasing doses of HOCl (varying HOCl:ApoA1 mole ratios). As for the experimental part: as §2, §1
Data set [4] is described as follows: DMPC emulsion clearance assay (lipid binding). The format is biochemical. To be noted: 25 μg protein, 125 μg DMPC, absorbance at 325 nm, 24° C. As for the experimental part:
FIGS. 7 (A-B) illustrate plots showing that rh-ApoA1 4WF binds lipid as well as rh-ApoA1 and its lipid binding activity is resistant to MPO mediated oxidation. A. Dimyristoyl phosphatidylcholine (DMPC) emulsions (125 μg) were prepared and incubated without addition (solid thick line) or with the addition of 25 μg rh-ApoA1 (solid thin line) or rh-ApoA1 4WF (dotted line). Lipid binding and solubilization was monitored by loss of turbidity by reading absorbance at 325 nm over time at 24° C. […] B. rh-ApoA1 (filled circles, solid line) and rh-ApoA1 4WF (open circles, dashed line) were subjected to modification by MPO at varying H2O2:ApoA1 mole ratios. These proteins were then assayed for lipid binding activity by prevention of phospholipase C dependent LDL aggregation. Data are normalized to the lipid binding activity of rh-ApoA1 treated in the absence of H2O2. Data are means±S.D. of triplicate determinations. *, p<0.05; and **, p<0.001 vs. rh-ApoA1 4WF at the same H2O2: ApoA1 mole ratio, respectively, by two tailed t-test.

Data set [5] deals with human low density lipoprotein. The experiment in a line: Lipid binding activity assay: inhibition of phospholipase C (PLC)-mediated aggregation of LDL. The format is biochemical. The following applies: for lipid binding activity after MPO modification: PLC mediated LDL aggregation assay, MPO at varying H2O2:ApoA1 mole ratios. On the procedure: as §2
Lipid binding activity of ApoA1 was assessed via the inhibition of phospholipase C (PLC)-mediated aggregation of human low density lipoprotein, performed as previously described. We have previously shown that this assay give results similar to those observed by the DMPC dispersion clearance assay, but it is more sensitive and requires less ApoA1. The final concentration of apoA1 used in this assay as 12.5 μg/mL. which was sufficient to decrease the initial rate LDL aggregation by ≈75%.

Data set [6] is described as follows: Alpha helix content by CD (K2d algorithm). To be noted: for alpha helix content: K2d algorithm, unmodified protein; for loss of alpha helix content after MPO modification: MPO/H2O2 dose dependent. It is filed as physicochemical. The source says:
We examined the role of ApoA1 tryptophan residues next by altering each of the four tryptophan residues to either leucine (rh-ApoA1 4WL) or phenylalanine (rh-ApoA1 4WF). […] Thus, the loss of efflux and lipid binding activity of the 4WL variant cannot be attributed to loss of helical content.

Where a chain is given by its changes, count along the chain named. “Also recorded” adds a separate entry of the source.

On to “rh-ApoA1: recombinant human ApoA1, with an additional methionine initiation codon and a 6-his tag at the N-terminus”, for which the “ABCA1-dependent cholesterol acceptor activity” value in data set [1] is recorded as “yielded ABCA1 dependent cholesterol acceptor activity”. In addition, in data set [2], the “MPO mediated loss of cholesterol acceptor activity, high dose” value was “equally susceptible”; the “loss of cholesterol acceptor activity” value is on record as “negligible loss”; the “ABCA1-dependent cholesterol acceptor activity after MPO modification” value is on record as “inhibited by increasing MPO induced oxidation”. The “cholesterol acceptor (efflux) activity after HOCl treatment” value in data set [3] is “impaired by increasing doses of HOCl”. In data set [4], the “lipid binding activity (DMPC clearance)” value was “equivalent activity”. The “lipid binding activity after MPO modification” value in data set [5] is “diminished lipid binding activity”. Moreover, in data set [6], the alpha helix content is 57% and the “loss of alpha helix content after MPO modification” value (from here on “loss of alpha helix content”) was “susceptible to loss of alpha helical content”.
Turning to “methylated ApoA1: ApoA1 subjected to reductive methylation, leading to 92% lysine modification”, the “ABCA1-dependent cholesterol acceptor activity” value in data set [1] was “robust and equivalent”. Further, in data set [2], the “ABCA1-dependent cholesterol acceptor activity after MPO modification” value is reported as “declined in a similar fashion”. For the same molecule, the “loss of alpha helix content” value in data set [6] was “similarly susceptible”.
As to ApoA1: human plasma-derived ApoA1, in data set [1], the “ABCA1-dependent cholesterol acceptor activity” value was “robust and equivalent”. In addition, in data set [2], the “ABCA1-dependent cholesterol acceptor activity after MPO modification” value is recorded as “declined in a similar fashion”. Besides, the “decrease of the initial rate of LDL aggregation” value in data set [5] (apoA1 final concentration 12.5 μg/mL) is “≈ 75%”. Further, in data set [6], the “loss of alpha helix content” value is reported as “similarly susceptible”.

B1: rh-ApoA1 3MV: rh-ApoA1 with the three internal methionines converted to valines (protein, UniProt P02647 25-267, looked up, variant M86V M112V M148V)
Apolipoprotein A-I: DEPPQSPWDRVKDLATVYVDVLKDSGRDYVSQFEGSALGKQLNLKLLDNWDSVTSTFSKLREQLGPVTQEFWDNLEKETEGLRQEVSKDLEEVKAKVQPYLDDFQKKWQEEVELYRQKVEPLRAELQEGARQKLHELQEKLSPLGEEVRDRARAHVDALRTHLAPYSDELRQRLAARLEALKENGGARLAEYHAKATEHLSTLSEKAKPALEDLRQGLLPVLESFKVSFLSALEEYTKKLNTQ
B1: in data set [2], the “MPO mediated loss of cholesterol acceptor activity, high dose” value is recorded as “equally susceptible”; the “loss of cholesterol acceptor activity” value was “lost about half of its cholesterol acceptor activity”; the “ABCA1-dependent cholesterol acceptor activity after MPO modification” value was “more sensitive to loss of cholesterol acceptor activity at low molar ratios”.

B2: rh-ApoA1 4WF: rh-ApoA1 with each of the four tryptophan residues altered to phenylalanine (protein, UniProt P02647 25-267, looked up, variant W8F W50F W72F W108F)
Apolipoprotein A-I: B1 Apolipoprotein A-I with W8F, W50F, W72F, V86M, W108F, V112M, V148M
As to B2, the “ABCA1-dependent cholesterol acceptor activity” value in data set [1] (listed as 4WF variant) is on record as “largely retained this activity”. For the same molecule, the “ABCA1-dependent cholesterol acceptor activity after MPO modification” value in data set [2] is recorded as “maintained this activity even at an H2O2:ApoA1 ratio of 15”. In data set [3], the “cholesterol acceptor (efflux) activity after HOCl treatment” value is “resistant to this treatment”. Also, in data set [4] (listed as 4WF variant), the “lipid binding activity (DMPC clearance)” value is given as “equivalent activity”. Moreover, the “lipid binding activity after MPO modification” value in data set [5] is on record as “resistant to MPO mediated inhibition; also recorded: did not loose its lipid binding activity”. Also, in data set [6], the alpha helix content is reported as 77% and the “loss of alpha helix content” value is given as “susceptible to loss of alpha helical content”.

B3: rh-ApoA1 4WL: rh-ApoA1 with each of the four tryptophan residues altered to leucine (protein, UniProt P02647 25-267, looked up, variant W8L W50L W72L W108L)
Apolipoprotein A-I: B1 Apolipoprotein A-I with W8L, W50L, W72L, V86M, W108L, V112M, V148M
Turning to B3, in data set [1] (listed as 4WL variant), the “ABCA1-dependent cholesterol acceptor activity” value was “lost the majority of this activity”. This molecule also yielded an alpha helix content in data set [6] of 79%.
